Experiments:
[1] = target: SGK PY-motif peptide (human); experiment: SPR; BIAcore 2000; peptide immobilised on Sensor Chip CM5 by amine chemistry; isolated WW-domains injected at 20 µl/min in HBS-EP; KD estimated from steady state equilibrium responses
[2] = target: βhENaC PY-motif peptide (human); experiment: as above
[3] = target: βENaC PY motif peptide (Homo sapiens) (UniProt P51168); conditions: cited from earlier work

Sequence of Nedd4 WW2-4 (P46934 767-925): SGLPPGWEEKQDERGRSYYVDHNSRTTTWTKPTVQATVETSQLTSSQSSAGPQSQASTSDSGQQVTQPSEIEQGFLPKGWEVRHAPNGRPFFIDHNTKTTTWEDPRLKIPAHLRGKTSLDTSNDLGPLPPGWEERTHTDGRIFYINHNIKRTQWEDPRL

Kd [1] [µM]	Kd [2] [µM]	Substance	Kd [3] [µM]
250	11.1	Nedd4-2 WW3 (isolated WW-domain, GST removed) (domain or fragment)	
		Nedd4 WW2-4 (from UniProt P46934)	65

Source: PMC2921341, “Interaction of Serum- and Glucocorticoid Regulated Kinase 1 (SGK1) with the WW-Domains of Nedd4-2 Is Required for Epithelial Sodium Channel Regulation” (PLoS ONE, 2010)
